Holding throughout (experiment): two-hybrid library CCNG1;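 further: natural log of median RNA to DNA barcode read ratio; higher means stronger binding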
For one test, the target named is T1, P12A-bN.
T1 chain: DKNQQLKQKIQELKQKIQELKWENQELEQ

The target in a further test is T2, P4A-bN.
T2 chain: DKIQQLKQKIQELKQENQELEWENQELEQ

The target of another test is T3, P1A-bN.
T3 chain: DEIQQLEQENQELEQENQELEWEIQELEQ

Another test addresses T4, P9A-bN.
T4 chain: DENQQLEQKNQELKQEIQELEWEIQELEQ

In the next test the target is T5, P8A-bN.
T5 chain: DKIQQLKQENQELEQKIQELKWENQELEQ

Another test addresses T6, P5A-bN.
T6 chain: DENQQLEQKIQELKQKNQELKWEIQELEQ

Another test deals with T7, P11A-bN.
T7 chain: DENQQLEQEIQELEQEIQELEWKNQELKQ

The target of another test is T8, P7A-bN.
T8 chain: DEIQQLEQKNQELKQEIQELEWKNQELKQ

The next test addresses T9, P6A-bN.
T9 chain: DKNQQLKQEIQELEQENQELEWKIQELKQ

The target in the next test is T10, P3A-bN.
T10 chain: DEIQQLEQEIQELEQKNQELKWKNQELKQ

A further test concerns the target T11, P2A-bN.
T11 chain: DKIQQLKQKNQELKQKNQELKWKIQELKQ

The target of another test is T12, 4H918-bA.
T12 chain: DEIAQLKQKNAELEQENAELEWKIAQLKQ

Another test has as its target T13, 4H4001-bA.
T13 chain: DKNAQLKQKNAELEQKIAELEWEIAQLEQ

A further test has as its target T14, 4H3354-bA.
T14 chain: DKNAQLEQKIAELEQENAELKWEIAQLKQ

The target of another test is T15, 4H883-bA.
T15 chain: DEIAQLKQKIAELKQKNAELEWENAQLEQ

For the next test, the target named is T16, 4H3782-bA.
T16 chain: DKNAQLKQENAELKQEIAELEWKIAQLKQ

A further test concerns the target T17, 4H754-bA.
T17 chain: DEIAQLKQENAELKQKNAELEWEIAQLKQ

For a further test, the target named is T18, 4H3855-bA.
T18 chain: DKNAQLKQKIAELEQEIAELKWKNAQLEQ

For another test, the target named is T19, 4H687-bA.
T19 chain: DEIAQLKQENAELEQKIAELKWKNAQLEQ

The next test addresses T20, 4H953-bA.
T20 chain: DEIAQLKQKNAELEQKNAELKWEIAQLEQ

The target of the next test is T21, 4H2576-bA.
T21 chain: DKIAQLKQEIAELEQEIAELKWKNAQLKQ

Another test has as its target T22, 4H2442-bA.
T22 chain: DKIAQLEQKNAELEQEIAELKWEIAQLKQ

The target of another test is T23, 4H348-bA.
T23 chain: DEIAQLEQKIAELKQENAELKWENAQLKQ

Another test concerns the target T24, 4H3427-bA.
T24 chain: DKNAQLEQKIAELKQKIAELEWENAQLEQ

In the next test the target is T25, 4H3112-bA.
T25 chain: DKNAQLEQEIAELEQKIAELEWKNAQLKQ

The target of another test is T26, 4H2618-bA.
T26 chain: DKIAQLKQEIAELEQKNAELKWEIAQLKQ

Another test deals with T27, 4H331-bA.
T27 chain: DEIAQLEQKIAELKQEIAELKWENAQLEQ

The next test deals with T28, 4H2729-bA.
T28 chain: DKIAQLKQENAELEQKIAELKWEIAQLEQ

The target of the next test is T29, 4H797-bA.
T29 chain: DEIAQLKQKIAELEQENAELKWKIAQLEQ

Another test deals with T30, 4H72-bA.
T30 chain: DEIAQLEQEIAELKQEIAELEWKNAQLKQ

A further test concerns the target T31, 4H338-bA.
T31 chain: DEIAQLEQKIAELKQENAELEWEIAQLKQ

For a further test, the target named is T32, 4H967-bA.
T32 chain: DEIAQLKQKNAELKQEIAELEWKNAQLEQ

Another test has as its target T33, 4H1828-bA.
T33 chain: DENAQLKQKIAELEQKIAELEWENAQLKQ

In another test the target is T34, 4H2667-bA.
T34 chain: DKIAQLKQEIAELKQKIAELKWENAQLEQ

The target in a further test is T35, P9A-bH.
T35 chain: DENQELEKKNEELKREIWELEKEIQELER

In another test the target is T36, 4H717-bA.
T36 chain: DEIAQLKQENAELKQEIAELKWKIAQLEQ

The target of a further test is T37, 4H908-bA.
T37 chain: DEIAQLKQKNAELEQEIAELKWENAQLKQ

In a further test the target is T38, 4H454-bA.
T38 chain: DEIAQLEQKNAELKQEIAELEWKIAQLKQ

In a further test the target is T39, 4H492-bN.
T39 chain: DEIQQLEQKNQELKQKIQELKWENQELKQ

The target in the next test is T40, 4H568-bA.
T40 chain: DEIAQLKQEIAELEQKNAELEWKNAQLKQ

The target in the next test is T41, 4H607-bA.
T41 chain: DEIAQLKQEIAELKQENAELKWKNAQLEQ

A further test addresses T42, 4H3185-bA.
T42 chain: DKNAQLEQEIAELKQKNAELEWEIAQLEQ

In a further test the target is T43, 4H1845-bA.
T43 chain: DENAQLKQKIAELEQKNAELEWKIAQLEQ

In another test the target is T44, P8A-bH.
T44 chain: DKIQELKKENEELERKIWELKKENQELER

The target of another test is T45, P2A-bH.
T45 chain: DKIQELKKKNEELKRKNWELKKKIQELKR

In a further test the target is T46, P5A-bH.
T46 chain: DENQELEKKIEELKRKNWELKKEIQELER

The target of another test is T47, P1A-bH.
T47 chain: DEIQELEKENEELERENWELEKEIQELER

Another test concerns the target T48, P3A-bH.
T48 chain: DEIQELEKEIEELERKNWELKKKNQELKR

The target of a further test is T49, P4A-bH.
T49 chain: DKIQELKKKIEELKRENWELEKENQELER

The target of another test is T50, P6A-bH.
T50 chain: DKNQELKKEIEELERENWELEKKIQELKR

Another test has as its target T51, P7A-bH.
T51 chain: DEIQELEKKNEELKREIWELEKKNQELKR

The next test addresses T52, P12A-bH.
T52 chain: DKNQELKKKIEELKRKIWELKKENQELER

Consider DENQQLEQEIQELEQEIQELEWKNQELKQ [P11A-bN], for which the interaction score is 0.458 in the test with P12A-bN; 1.12 with P4A-bN; -0.501 with P1A-bN; 0.422 with P9A-bN; 0.54 with P8A-bN; -1.3 with P5A-bN. The interaction score with P11A-bN is 0.856; in the test with P7A-bN, -0.868; in the test with P6A-bN, -0.465; with P3A-bN, 0.143; with P2A-bN, 0.436.
Regarding DKNQQLKQENQELEQKIQELKWKIQELKQ [P10A-bN], the interaction score with P12A-bN is -0.334; with P4A-bN, 0; with P1A-bN it was -0.0109; in the test with P8A-bN it was -1.93; with P5A-bN, -0.55; with P11A-bN, 0.197. The interaction score is 0.528 in the test with P7A-bN, -0.522 in the test with P6A-bN, -2.58 with P3A-bN and -1.29 in the test with P2A-bN.
Consider DENAQLKQKIAELEQKIAELEWENAQLKQ [4H1828-bA], for which the interaction score was -0.412 with 4H918-bA; -0.562 in the test with 4H4001-bA; 0.0682 with 4H3354-bA; -0.928 in the test with 4H883-bA; 0.85 with 4H3782-bA; -1.2 with 4H754-bA. The interaction score is -0.259 with 4H3855-bA; -0.0353 with 4H687-bA; -0.126 in the test with 4H953-bA; 0.0647 with 4H2576-bA; 0.499 in the test with 4H2442-bA; -0.144 with 4H348-bA. Besides, the interaction score with 4H3427-bA was 0.974; with 4H3112-bA, 1.15; with 4H2618-bA it was 0.132; with 4H331-bA, -0.739; with 4H2729-bA, -0.137; with 4H797-bA, -0.153. Further, the interaction score with 4H72-bA is -0.902; with 4H338-bA it was -1.89; with 4H967-bA, -0.0426; in the test with 4H1828-bA, 0.663; with 4H2667-bA it was 0.0606; with P9A-bH it was 0.475. Moreover, the interaction score with 4H717-bA is -1.09; with 4H908-bA, -0.276; with 4H454-bA, -1.06; with 4H492-bN it was -2.71; with 4H568-bA, 0.727; with 4H607-bA, -0.523. For the same molecule, the interaction score in the test with 4H3185-bA was -0.351; with 4H1845-bA it was -0.511.
Turning to DKNQELKKKIEELKRKIWELKKENQELER [P12A-bH], the interaction score in the test with P8A-bH was 0.274; with P2A-bH, -1.23; in the test with P5A-bH it was -2.21; with P1A-bH, 0.256; with P3A-bH, 1.64; with P4A-bH, -0.357. For the same molecule, the interaction score with P6A-bH is 0.389; with P9A-bH, 0.667; in the test with P7A-bH it was -0.514; with P12A-bH it was -0.588.

Source of the values: article PMC10397247.
